Columns and labels:
Assay in all cases: pull-down binding Z-score (relative to library population); higher = stronger binding
[1] = test system: G-clamp-N3 (biotin conjugate); conditions: RNA library: Library-1 (pre-miRNA loops + repeats)
Outline: (§1)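 A heat-folded, dye-end-labelled (Cy5 or Cy3) RNA library (1 μg, phosphate/NaCl/KCl buffer) was exposed for 60 min at 25 °C to streptavidin beads holding 100 pmol of biotin-conjugated small molecule. RNA retained on the beads was eluted in hot SDS and hybridised to a DNA barcode microarray for 20 h at 55.5 °C. Binding scores were Z-scores against the library mean and standard deviation, calculated after subtracting beads alone and taking trimmed means of replicate probes.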

[2] = test system: TO-3-N3 (biotin conjugate); conditions: RNA library: Library-2
Outline: as §1

[3] = test system: TO-3-N3-2 (biotin conjugate); conditions: RNA library: Library-2
Outline: as §1

TO-N3 (biotin conjugate) = conditions: RNA library: Library-2
Outline: as §1

[4] = test system: TO-N3-2 (biotin conjugate); conditions: RNA library: Library-2
Outline: as §1

| Sequence | pull-down binding Z-score [1] | pull-down binding Z-score [2] | pull-down binding Z-score [3] | pull-down binding Z-score (TO-N3 (biotin conjugate)) | pull-down binding Z-score [4] |
| --- | --- | --- | --- | --- | --- |
| AGUGUGCAGUCAUCCACACA [hsa-mir-4731] | -0.603 | -0.32 | -0.196 | -0.519 | -0.401 |
| CUCACCAUAGUGGUGGA [hsa-mir-1288] | -1.2 | -0.33 | -0.646 | -0.412 | -0.588 |
| UGUUGACUGAAUAAUAAACA [hsa-mir-3139] | -1.29 | -0.946 | -0.319 | -1.23 | -0.846 |
| CUGGGUCCUCUGUGCAGGGUCUUACCCAG [hsa-mir-7850] | -0.833 | -0.3 | -0.415 | -0.253 | 0.337 |
| GGGGCUGGCUGGGUCUGGUAGUGGGCAUCAGCUGGCCCU [hsa-mir-1207] | 2 | 2.53 | 1.51 | 2.6 | 1.22 |
| UGUUUAUGUUAUUUAUGGUUAAACA [hsa-mir-376c] | 0.239 | -0.655 | -0.269 | -0.887 | -0.967 |
| ACUACUGUGCUCUGAGAAGCAGU [hsa-mir-301b] | 1.42 | 0.599 | -0.255 | 0.643 | 0.325 |
| GAGAGUGCUGUCUGAAUGCAAUGC [hsa-mir-500a] | 1.08 | 0.797 | 0.291 | 0.89 | 0.766 |
| CUUUCCUCAGCUGAUUUCUUUCUGGGGAGAG [hsa-mir-5186] | -0.72 | -0.144 | -0.279 | -0.52 | -1.08 |
| UUUUCUUAAAUUGUAUAAAGAGAAAU [hsa-mir-944] | -0.343 | -0.406 | -0.156 | -0.741 | -0.622 |
| CCUAGUGGCUAGCCCUGGGUCUAGCAGCCUAUGGCAGUGUCUGGUAAACACUGGUGGAGUCCUGGG [hsa-mir-6745] | 0.335 | -0.189 | -0.307 | 0.336 | 1.22 |
| GAAGGGAAGCUGGGAACCUGACUGCCUC [hsa-mir-6867] | -0.151 | 0.688 | 0.402 | 0.961 | 1.66 |
| GCUUAUGUCAUGACCUUGGGCUACUCAGGCUGUCUGCACAAUGAGC [hsa-mir-575] | -0.804 | -0.544 | -0.342 | -0.0339 | 1.66 |
| CUGGCUGGUCCAGCCCCUCAGAAG [hsa-mir-6796] | -0.944 | 1.16 | 0.4 | 1.39 | 1.47 |
| GACGUCCAAUCUCUUUGGGACGCC [hsa-mir-2682] | 2.24 | 0.551 | -0.309 | 0.419 | -0.436 |
| CAUGAUUUGGAAAAAUUACUG [hsa-mir-6128] | -0.888 | -0.174 | -0.0805 | -0.151 | -0.315 |

| Sequence | pull-down binding Z-score [1] | pull-down binding Z-score [2] | pull-down binding Z-score [3] | pull-down binding Z-score (TO-N3 (biotin conjugate)) | pull-down binding Z-score [4] |
| --- | --- | --- | --- | --- | --- |
| UAGGGCGCGGAGGGCGGACCGGGAA [hsa-mir-638] | 0.973 | 5.36 | 6.57 | 5.19 | 4.4 |
| AGCUGGGGCCGGGU [hsa-mir-4281] | 0.118 | 1.37 | 0.821 | 1.63 | 1.27 |
| AGGCAUUAGGAUCCUUAUUCUUGCCU [hsa-mir-4788] | -0.175 | -0.238 | -0.442 | -0.559 | -0.364 |
| CAUUAACGUGGACCAGACAAUAUUAAUG [hsa-mir-4491] | -1.14 | -0.339 | -0.12 | -0.0907 | -0.0295 |
| AAAUAGUUUCUAUCAAAAUAGUUU [hsa-mir-3668] | -1.13 | -0.791 | -0.362 | -0.931 | -1.14 |
| GUGAACCUGAAUUUGCCUUGGGUUUCCU [hsa-mir-670] | -0.325 | -0.509 | -0.132 | 0.262 | 1.76 |
| AGUAGCUGGGAAUACAGGUGUGUGCCACCAUGCCUCUACAAGCUACC [hsa-mir-7851] | -0.609 | -0.469 | -0.134 | -0.0861 | 0.445 |
| UUUUGCUAUUACUUUUAAAGGCAAAA [hsa-mir-548e] | -0.666 | 0.431 | 0.21 | -0.0747 | -0.684 |
| UGGGUUGAACUGUGUGGACAAGCUCA [hsa-mir-181b-1] | -0.166 | -0.111 | -0.042 | 0.366 | 0.631 |
| CUUGCAGAAUUAAUGGAAUGCUG [hsa-mir-676] | -1.73 | 0.253 | 0.0539 | 0.41 | 0.28 |
| AACUCUGUUGAAUAUAAAUUGGAAUU [hsa-mir-367] | -0.214 | -0.404 | 0.00577 | -0.572 | -0.424 |
| CUGCGGCCCUGAUGUCUCUACUCCAG [hsa-mir-4691] | -0.134 | 0.388 | 0.103 | 0.703 | 0.919 |
| GUGUGUUACCUAGAAAUAGCACU [hsa-mir-378a] | -1.11 | -0.283 | -0.165 | -0.282 | -0.118 |
| CGCGCGUCGAGUCAGCCGUGUG [hsa-mir-933] | 1.31 | -0.126 | -0.276 | 0.126 | 0.532 |
| GGCAGGAGGCAGUGAAGUAACUUGC [hsa-mir-3934] | -0.848 | 1 | 0.583 | 1.43 | 1.2 |
